Data reported in patent US20230272049A1 (published 2023).
Positions count from the first letter of the chain named.

T1: HPV16 E7 peptide on HLA-A*02:01 (human)
T1 peptide: YMLDLQPET

B1: E7-11-176 (TCR, V domains shown)
Valpha: DQQVKQNSPSLSVQEGRISILNCDYTNSMFDYFLWYKKYPAEGPTFLISISSIKDKNEDGRFTVFLNKSAKHLSLHIVPSQPGDSAVYFCAAKNSNSGYALNFGKGTSLLVTP
Vbeta: not shown
B2: E7-11-455 (TCR, V domains shown)
Valpha: QKEVEQDPGPLSVPEGAIVSLNCTYSNSAFQYFMWYRQYSRKGPELLMYTYSSGNKEDGRFTAQVDKSSKYISLFIRDSQPSDSATYLCAMAGSGNTGKLIFGQGTTLQVKP
Vbeta: DTGVSQDPRHKITKRGQNVTFRCDPISEHNRLYWYRQTLGQGPEFLTYFQNEAQLEKSRLLSDRFSAERPKGSFSTLEIQRTEQGDSAMYLCASSSSTKNIQYFGAGTRLSVL
B3: E7-11-28 (TCR, V domains shown)
Valpha: GQQVMQIPQYQHVQEGEDFTTYCNSSTTLSNIQWYKQRPGGHPVFLIQLVKSGEVKKQKRLTFQFGEAKKNSSLHITATQTTDVGTYFCAGIGSSNTGKLIFGQGTTLQVKP
Vbeta: EPEVTQTPSHQVTQMGQEVILRCVPISNHLYFYWYRQILGQKVEFLVSFYNNEISEKSEIFDDQFSVERPDGSNFTLKIRSTKLEDSAMYFCAITGRVSYEQYFGPGTRLTVT
B4: E7-11-194 (TCR, V domains shown)
Valpha: B3 Valpha with I92L
Vbeta: B3 Vbeta with I94T, V98A

Target: T1, HPV16 E7 peptide on HLA-A*02:01
Assay: multimer staining

Binding result, recognises:
B1, B2, B3, B4
